Data: publication PMC12274614, “Scavenger receptor CD163 multimerises to allow uptake of diverse ligands” (Nature Communications, 2025)

Tests used:
[1] = target: CD163 ectodomain (CD163-WT) (human) (UniProt Q86VB7)
[2] = target: haptoglobin Hp(1-1) (human) (UniProt P00738); experiment: MST; Monolith NT.115, 25 °C, 20 mM HEPES pH 7.5, 150 mM NaCl, […] CaCl2; Alexa Fluor 647-labelled Hb (200 nM) or Hp(1-1) (500 nM or 1.0 μM) held constant, CD163 ectodomain (WT or R809T-BAP) titrated
[3] = target: T1, CD163-WT ectodomain (C-tag, without BAP tag) (human, UniProt Q86VB7-1 46-1050); experiment: MST; Monolith NT.115, 25 °C; 20 mM HEPES pH 7.5, 150 mM NaCl, 2.5 mM CaCl2; fluorescent Hb (200 nM) or Hp(1-1) (0.50 µM) mixed with two-fold dilution series of CD163 (WT from 24.4 or 37.9 µM, R809T from 41.5 µM); fit to the combined triplicate; details: both partners purified
T1 construct: Cloned into pHLsec with a C-terminal GAA linker and a C-tag; Dimers and trimers in the cryo-EM structures; also called WT CD163; CD163A

Hp(2-2)Hb (haptoglobin isoform 2 - haemoglobin complex) (from UniProt P00738-1 19-160; P00738-1 162-406)
IC50 of competition for the uptake of 50 nM labelled Hp(2-2)Hb into HEK293 cells expressing full-length CD163-GFP, FACS [1]: 0.04 µM | uptake of fluorescently labelled Hp(2-2)Hb (0-600 nM) into HEK293 cells with or without full-length CD163-GFP (residues 46-1156), FACS [1]: 10 fold

CD163 ectodomain (CD163-WT) (from UniProt Q86VB7-1 46-1050) (domain or fragment)
Kd [2]: 27 µM

B1: Haptoglobin Hp(1-1), fluorescently labelled (natural protein)
chain 1: VDSGNDVTDIADDGCPKPPEIAHGYVEHSVRYQCKNYYKLRTEGDGVYTLNNEKQWINKAVGDKLPECEAVCGKPKNPANPVQ
chain 2: ILGGHLDAKGSFPWQAKMVSHHNLTTGATLINEQWLLTTAKNLFLNHSENATAKDIAPTLTLYVGKKQLVEIEKVVLHPNYSQVDIGLIKLKQKVSVNERVMPICLPSKDYAEVGRVGYVSGWGRNANFKFTDHLKYVMLPVADQDQCIRHYEGSTVPEKKTPKSPVGVQPILNEHTFCAGMSKYQEDTCYGDAGSAFAVHDLEEDTWYATGILSFDKSCAVAEYGVYVKVTSIQDWVQKTIAEN
modifications: Alexa Fluor 647 (NHS ester labelling of the protein; sites not stated) | Alexa Fluor 647 (NHS ester labelling of the protein; sites not stated)
Kd [3]: 26.6 µM
